Assay results: article PMC7708043 (Nucleic Acids Research, 2020)

T1: mEGFP-ALC1 (UniProt Q86WJ1 1-897)
T1 sequence (looked up): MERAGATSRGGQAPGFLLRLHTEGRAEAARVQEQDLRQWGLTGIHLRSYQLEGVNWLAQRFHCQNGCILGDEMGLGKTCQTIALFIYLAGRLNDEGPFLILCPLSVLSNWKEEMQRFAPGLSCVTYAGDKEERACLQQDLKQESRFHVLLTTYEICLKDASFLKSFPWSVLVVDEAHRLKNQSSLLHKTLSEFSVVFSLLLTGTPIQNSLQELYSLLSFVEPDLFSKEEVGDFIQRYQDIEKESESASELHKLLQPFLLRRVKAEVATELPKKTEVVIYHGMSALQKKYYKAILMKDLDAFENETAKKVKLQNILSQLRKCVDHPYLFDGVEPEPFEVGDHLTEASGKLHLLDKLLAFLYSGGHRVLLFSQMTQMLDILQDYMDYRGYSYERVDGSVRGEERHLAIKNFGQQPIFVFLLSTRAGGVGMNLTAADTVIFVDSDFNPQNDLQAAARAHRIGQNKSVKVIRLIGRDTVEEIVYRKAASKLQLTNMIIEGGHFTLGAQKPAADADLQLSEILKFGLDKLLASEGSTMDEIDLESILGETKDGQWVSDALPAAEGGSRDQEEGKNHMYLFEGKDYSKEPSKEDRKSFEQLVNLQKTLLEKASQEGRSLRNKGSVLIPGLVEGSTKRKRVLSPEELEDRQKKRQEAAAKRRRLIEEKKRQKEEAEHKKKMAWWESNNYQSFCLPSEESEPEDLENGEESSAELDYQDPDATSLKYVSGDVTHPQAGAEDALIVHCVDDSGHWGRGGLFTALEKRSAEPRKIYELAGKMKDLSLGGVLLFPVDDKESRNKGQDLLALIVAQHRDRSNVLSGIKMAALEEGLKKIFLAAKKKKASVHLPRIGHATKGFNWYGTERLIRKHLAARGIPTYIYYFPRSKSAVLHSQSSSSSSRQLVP

B1: mCherry-TRIM33 (natural protein, UniProt Q9UPN9 1-1127, looked up)
chain: MAENKGGGEAESGGGGSGSAPVTAGAAGPAAQEAEPPLTAVLVEEEEEEGGRAGAEGGAAGPDDGGVAAASSGSAQAASSPAASVGTGVAGGAVSTPAPAPASAPAPGPSAGPPPGPPASLLDTCAVCQQSLQSRREAEPKLLPCLHSFCLRCLPEPERQLSVPIPGGSNGDIQQVGVIRCPVCRQECRQIDLVDNYFVKDTSEAPSSSDEKSEQVCTSCEDNASAVGFCVECGEWLCKTCIEAHQRVKFTKDHLIRKKEDVSESVGASGQRPVFCPVHKQEQLKLFCETCDRLTCRDCQLLEHKEHRYQFLEEAFQNQKGAIENLLAKLLEKKNYVHFAATQVQNRIKEVNETNKRVEQEIKVAIFTLINEINKKGKSLLQQLENVTKERQMKLLQQQNDITGLSRQVKHVMNFTNWAIASGSSTALLYSKRLITFQLRHILKARCDPVPAANGAIRFHCDPTFWAKNVVNLGNLVIESKPAPGYTPNVVVGQVPPGTNHISKTPGQINLAQLRLQHMQQQVYAQKHQQLQQMRMQQPPAPVPTTTTTTQQHPRQAAPQMLQQQPPRLISVQTMQRGNMNCGAFQAHQMRLAQNAARIPGIPRHSGPQYSMMQPHLQRQHSNPGHAGPFPVVSVHNTTINPTSPTTATMANANRGPTSPSVTAIELIPSVTNPENLPSLPDIPPIQLEDAGSSSLDNLLSRYISGSHLPPQPTSTMNPSPGPSALSPGSSGLSNSHTPVRPPSTSSTGSRGSCGSSGRTAEKTSLSFKSDQVKVKQEPGTEDEICSFSGGVKQEKTEDGRRSACMLSSPESSLTPPLSTNLHLESELDALASLENHVKIEPADMNESCKQSGLSSLVNGKSPIRSLMHRSARIGGDGNNKDDDPNEDWCAVCQNGGDLLCCEKCPKVFHLTCHVPTLLSFPSGDWICTFCRDIGKPEVEYDCDNLQHSKKGKTAQGLSPVDQRKCERLLLYLYCHELSIEFQEPVPASIPNYYKIIKKPMDLSTVKKKLQKKHSQHYQIPDDFVADVRLIFKNCERFNEMMKVVQVYADTQEINLKADSEVAQAGKAVALYFEDKLTEIYSDRTFAPLPEFEQEEDDGEVTEDSDEDFIQPRRKRLKSDERPVHIK
B2: mCherry-ALC1 (natural protein, UniProt Q86WJ1 1-897, looked up)
chain: T1 sequence (looked up)

How the values were obtained:
Experiment in all cases: FRET or BRET
mEGFP-ALC1 = target: T1, mEGFP-ALC1
mEGFP-PARP1 [1] = target: T2, mEGFP-PARP1 (UniProt P09874 1-1014)
T2 sequence (P09874 whole entry): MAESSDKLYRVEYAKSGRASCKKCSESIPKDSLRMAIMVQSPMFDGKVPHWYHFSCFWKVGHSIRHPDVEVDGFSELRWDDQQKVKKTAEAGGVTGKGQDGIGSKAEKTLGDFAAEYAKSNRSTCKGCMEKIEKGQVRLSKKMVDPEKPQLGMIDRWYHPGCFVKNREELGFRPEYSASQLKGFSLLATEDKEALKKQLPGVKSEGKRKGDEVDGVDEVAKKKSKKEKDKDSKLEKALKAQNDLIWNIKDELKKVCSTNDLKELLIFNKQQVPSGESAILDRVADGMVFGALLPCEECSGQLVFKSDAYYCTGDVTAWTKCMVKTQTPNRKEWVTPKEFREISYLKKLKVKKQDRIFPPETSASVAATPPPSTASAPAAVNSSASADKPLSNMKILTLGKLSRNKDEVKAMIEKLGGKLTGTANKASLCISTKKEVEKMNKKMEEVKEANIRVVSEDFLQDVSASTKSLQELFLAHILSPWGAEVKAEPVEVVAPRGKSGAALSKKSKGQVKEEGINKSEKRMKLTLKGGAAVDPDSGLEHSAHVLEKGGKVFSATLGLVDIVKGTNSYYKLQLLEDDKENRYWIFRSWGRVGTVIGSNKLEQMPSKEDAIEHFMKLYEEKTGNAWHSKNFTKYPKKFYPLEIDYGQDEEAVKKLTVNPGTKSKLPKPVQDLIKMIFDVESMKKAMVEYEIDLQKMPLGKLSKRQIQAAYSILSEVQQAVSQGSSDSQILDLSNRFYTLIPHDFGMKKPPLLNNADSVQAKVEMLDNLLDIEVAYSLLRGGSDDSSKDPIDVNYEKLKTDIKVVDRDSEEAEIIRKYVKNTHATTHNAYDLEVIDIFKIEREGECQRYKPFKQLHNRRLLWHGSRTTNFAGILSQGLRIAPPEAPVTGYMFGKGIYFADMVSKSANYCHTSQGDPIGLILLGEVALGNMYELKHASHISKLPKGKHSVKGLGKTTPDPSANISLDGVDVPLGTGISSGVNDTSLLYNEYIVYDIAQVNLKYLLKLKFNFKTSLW

mEGFP-PARP1 [2] = target: T2, mEGFP-PARP1; remark: listed apart in the source

Binder	median FRET efficiency (at the damage site) (mEGFP-ALC1) [%]	median FRET efficiency (at the damage site) (mEGFP-PARP1 [1]) [%]	median FRET efficiency (1 min after damage) (mEGFP-PARP1 [2]) [%]	median FRET efficiency (5 min after damage) (mEGFP-PARP1 [2]) [%]
B1	2.2	–	–	–
B2	–	5.5	5.8	3.8
